Substrate: C[C@@H]1O[C@@H](Oc2ccc([N+](=O)[O-])cc2)[C@H](O)[C@H](O)[C@H]1O
Assay: purified protein
Settings: pH 5.0, 37 °C (b12; Experimental b31 prints Tris 200 mM, pH 6.0)

B1: DtRha (Dictyoglomus thermophilum H-6-12) (protein)
chain: MKSSNIYSPFDLKCEFTTNPLGVDKKNPIFSWKLRHLEKNEKQTAYQVIVSSSLETINDNIGDVWDTGKVLSSEQVIKYEGKELEPCKVYFWKVRWWDSKDQESPFSVVNTFETGLMNEENWKAKWITKKEHKYEVYSPDGAPFGLNYTIAYAPMFRKSFSISKKIKRARVYIAGLGLYELYINGERIGDRVLDPGQTDYKKRVLYTVYDVSKNIRDGKNAIGVILGNGRYVKEYGYDFPKLIIQVLVEYEDDSIEWIVSDESWKTTYGPITLNSLYHGEIYDGRKEIKGWNLPDFDDSTWENAILAEPPGGKLYSEIYPPIRITKTIKPIKMWSPEPGTYVYDFGQNYTGWIKIKVRTNESGKEIRIRHAELTYEDGTLNYSTNRTALATDVYITKGEGYEEYEPRFTYHGFRYVEILGYPGVPTLEDIEGKVVHTAVESNGEFICSNELINKIHHNIIWGQLSNLMSIPTDCPQRDERMGWMGDAQLSAEEAIFNFDMIGFYRKYLNDIRDAQKENGSLSDVIPPYWSIYPGDPAWSTAYITIAWYLYQYYGDKYVLEEHYEGFKKYVEFLKKLAPDYIVSFYKYGDWCQPGTVRPKDNSGELTSTFYFYHDVITLSKIAKLLGKEADYKYYSELADKIKSAFNKKFLKEKAYASIPTELSEENVKALLEKYPEDIKDFLRQQFTILSSLGMFTSQTLNTLPLYLNLVPEDKVQDVLKTLLEDIIIRHDYHLDTGIVATRYIFDVLTSYGYDEVAYKIVNQKTYPSFGYMIEEGATTLWERWEKLTSTGMNSHNHIMFGSVDAWFYRVIAGVRVGEPGWNKIIFEPHPVGDLKYAKARLNTIKGEVEINWQKTENIFSMRISVPVNSEGEVHVPKLFERFVVKEGDNIIYEKKGDLEENEKYIVIRVGSGSYNFYMEKI
Km: 54.00 ± 0.03 µM
kcat: 0.17 ± 0.01 s⁻¹
